In paper PMC3521718, “Histone Deacetylase HDA6 Is Functionally Associated with AS1 in Repression of KNOX Genes in Arabidopsis” (PLoS Genetics, 2012):

Molecular target: T1, glutathione S-transferase (GST)-HDA6 recombinant protein (Arabidopsis thaliana, UniProt Q9FML2 1-471)
T1 construct: Histone deacetylase HDA6 of Arabidopsis; Printed both as GST-HDA6 and as HDA6-GST; also called HDA6-GST; source: recombinant protein
T1 sequence (looked up): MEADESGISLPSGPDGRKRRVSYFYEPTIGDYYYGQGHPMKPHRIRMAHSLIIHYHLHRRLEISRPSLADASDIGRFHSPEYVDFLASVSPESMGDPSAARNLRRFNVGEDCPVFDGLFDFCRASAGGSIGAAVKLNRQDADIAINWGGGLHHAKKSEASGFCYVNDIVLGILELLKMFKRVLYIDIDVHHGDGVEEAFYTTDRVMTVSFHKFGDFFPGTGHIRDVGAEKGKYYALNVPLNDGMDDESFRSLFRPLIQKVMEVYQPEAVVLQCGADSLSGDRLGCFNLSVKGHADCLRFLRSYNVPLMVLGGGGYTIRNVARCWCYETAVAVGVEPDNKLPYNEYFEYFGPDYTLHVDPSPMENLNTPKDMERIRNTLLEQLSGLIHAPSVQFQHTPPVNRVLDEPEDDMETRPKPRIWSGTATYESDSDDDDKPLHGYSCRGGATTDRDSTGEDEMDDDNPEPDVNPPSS
Test: pull-down; 2 µg MBP-AS1 on MBP resin, then 2 µg GST-HDA6 for 2 h at 4°C; 20 mM Tris-HCl pH 7.5, 200 mM NaCl, 1 mM EDTA; western blot with anti-GST
Conditions: both partners purified

B1: MBP-AS1 recombinant protein (natural protein, Arabidopsis thaliana, UniProt O80931 1-367, looked up)
chain: MKERQRWSGEEDALLRAYVRQFGPREWHLVSERMNKPLNRDAKSCLERWKNYLKPGIKKGSLTEEEQRLVIRLQEKHGNKWKKIAAEVPGRTAKRLGKWWEVFKEKQQREEKESNKRVEPIDESKYDRILESFAEKLVKERSNVVPAAAAAATVVMANSNGGFLHSEQQVQPPNPVIPPWLATSNNGNNVVARPPSVTLTLSPSTVAAAAPQPPIPWLQQQQPERAENGPGGLVLGSMMPSCSGSSESVFLSELVECCRELEEGHRAWADHKKEAAWRLRRLELQLESEKTCRQREKMEEIEAKMKALREEQKNAMEKIEGEYREQLVGLRRDAEAKDQKLADQWTSRHIRLTKFLEQQMGCRLDRP
notes: The methods spell MBP out as 'Myelin basic protein'; source: purified recombinant protein
- binding result: binds
